Data taken from the supplement of paper PMC10567573.

B1: CAMK2B (parent)
chain: YQQIKAGAYDFPSPEWDTVTPEAK

Variants of: B1
Test: protein stability index of a GFP-peptide fusion (GPS, HEK-293T) (PSI 1-6); higher = more stable
Settings: c terminus: a fixed tail appended
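Note: lentivirally expressed fusions sorted by FACS into six bins by GFP to DsRed ratio, PSI derived from sequencing read proportions per bin multiplied by bin number.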

Row | Variant | protein stability index
1 | YQQIKAGAYDFPSPEWDTVTPTAK [E22T] | 3.05
2 | YQQIKAGAYDFPSPEWDTVTPRAK [E22R] | 2.91
3 | YQQIKAGAYDFPSPEWDTVTPVAK [E22V] | 2.82
4 | YQQIKAGAYDFPSPEWDTVTPFAK [E22F] | 2.3
5 | YQQIKAGAYDFPSPEWDTVTPHAK [E22H] | 2.98
6 | YQQIKAGAYDFPSPEWDTVTPLAK [E22L] | 2.98
7 | YQQIKAGAYDFPSPEWDTVTPGAK [E22G] | 3.27
8 | YQQIKAGAYDFPSPEWDTVTPSAK [E22S] | 2.97
9 | YQQIKAGAYDFPSPEWDTVTPDAK [E22D] | 3.89
10 | YQQIKAGAYDFPSPEWDTVTPWAK [E22W] | 2.08
11 | YQQIKAGAYDFPSPEWDTVTPAAK [E22A] | 2.9
12 | YQQIKAGAYDFPSPEWDTVTPCAK [E22C] | 2.82
13 | YQQIKAGAYDFPSPEWDTVTPPAK [E22P] | 2.93
14 | YQQIKAGAYDFPSPEWDTVTPQAK [E22Q] | 2.67
15 | YQQIKAGAYDFPSPEWDTVTPKAK [E22K] | 2.93
16 | YQQIKAGAYDFPSPEWDTVTPYAK [E22Y] | 2.46
17 | YQQIKAGAYDFPSPEWDTVTPIAK [E22I] | 3.05
18 | YQQIKAGAYDFPSPEWDTVTPMAK [E22M] | 2.63
19 | YQQIKAGAYDFPSPEWDTVTPNAK [E22N] | 3.41
20 | YQQIKAGAYDFPSPEWDTVTPEAD [K24D] | 4.11
21 | YQQIKAGAYDFPSPEWDTVTPEAR [K24R] | 3.43
22 | YQQIKAGAYDFPSPEWDTVTPEAN [K24N] | 4.11
23 | YQQIKAGAYDFPSPEWDTVTPEAC [K24C] | 3.38

Row | Variant | protein stability index
24 | YQQIKAGAYDFPSPEWDTVTPEAL [K24L] | 3.1
25 | YQQIKAGAYDFPSPEWDTVTPEAF [K24F] | 2.71
26 | YQQIKAGAYDFPSPEWDTVTPEAQ [K24Q] | 3.81
27 | YQQIKAGAYDFPSPEWDTVTPEAV [K24V] | 3.55
28 | YQQIKAGAYDFPSPEWDTVTPEAI [K24I] | 3.59
29 | YQQIKAGAYDFPSPEWDTVTPEAG [K24G] | 3.93
30 | YQQIKAGAYDFPSPEWDTVTPEAM [K24M] | 3.27
31 | YQQIKAGAYDFPSPEWDTVTPEAH [K24H] | 3.6
32 | YQQIKAGAYDFPSPEWDTVTPEAW [K24W] | 2.63
33 | YQQIKAGAYDFPSPEWDTVTPEAE [K24E] | 4.21
34 | YQQIKAGAYDFPSPEWDTVTPEAT [K24T] | 3.47
35 | YQQIKAGAYDFPSPEWDTVTPEAS [K24S] | 3.93
36 | YQQIKAGAYDFPSPEWDTVTPEAA [K24A] | 3.78
37 | YQQIKAGAYDFPSPEWDTVTPEAY [K24Y] | 3.04
38 | YQQIKAGAYDFPSPEWDTVTPEAP [K24P] | 3.37
39 | YQQIKAGAYDFPSPEWDTVTPEQK [A23Q] | 4.06
40 | YQQIKAGAYDFPSPEWDTVTPEEK [A23E] | 4.05
41 | YQQIKAGAYDFPSPEWDTVTPENK [A23N] | 3.97
42 | YQQIKAGAYDFPSPEWDTVTPEDK [A23D] | 4.36
43 | YQQIKAGAYDFPSPEWDTVTPEPK [A23P] | 3.48
44 | YQQIKAGAYDFPSPEWDTVTPEFK [A23F] | 3.28
45 | YQQIKAGAYDFPSPEWDTVTPEWK [A23W] | 3.25
46 | YQQIKAGAYDFPSPEWDTVTPETK [A23T] | 3.74

Row | Variant | protein stability index
47 | YQQIKAGAYDFPSPEWDTVTPEIK [A23I] | 3.28
48 | YQQIKAGAYDFPSPEWDTVTPEHK [A23H] | 3.92
49 | YQQIKAGAYDFPSPEWDTVTPEVK [A23V] | 3.27
50 | YQQIKAGAYDFPSPEWDTVTPEYK [A23Y] | 3.43
51 | YQQIKAGAYDFPSPEWDTVTPELK [A23L] | 2.81
52 | YQQIKAGAYDFPSPEWDTVTPEGK [A23G] | 3.94
53 | YQQIKAGAYDFPSPEWDTVTPESK [A23S] | 3.86
54 | YQQIKAGAYDFPSPEWDTVTPECK [A23C] | 2.98
55 | YQQIKAGAYDFPSPEWDTVTPEMK [A23M] | 3.28
56 | YQQIKAGAYDFPSPEWDTVTPERK [A23R] | 3.69
57 | YQQIKAGAYDFPSPEWDTVTPEKK [A23K] | 3.82
58 | YQQIKAGAYDFPSPEWDTVTKEAK [P21K] | 3.76
59 | YQQIKAGAYDFPSPEWDTVTIEAK [P21I] | 3
60 | YQQIKAGAYDFPSPEWDTVTQEAK [P21Q] | 3.91
61 | YQQIKAGAYDFPSPEWDTVTYEAK [P21Y] | 3.08
62 | YQQIKAGAYDFPSPEWDTVTTEAK [P21T] | 3.6
63 | YQQIKAGAYDFPSPEWDTVTVEAK [P21V] | 3.42
64 | YQQIKAGAYDFPSPEWDTVTMEAK [P21M] | 3.31
65 | YQQIKAGAYDFPSPEWDTVTSEAK [P21S] | 3.62
66 | YQQIKAGAYDFPSPEWDTVTREAK [P21R] | 3.2
67 | YQQIKAGAYDFPSPEWDTVTLEAK [P21L] | 3.28
68 | YQQIKAGAYDFPSPEWDTVTWEAK [P21W] | 2.53
69 | YQQIKAGAYDFPSPEWDTVTNEAK [P21N] | 3.78
